Measured values taken from patent US20250354169A1.

Molecular target: human FAM19A5-Fc protein (human) (UniProt Q7Z5A7)
Assay: binding inhibition, flow cytometry: 0.1 ug FAM19A5-Fc pre-incubated with 200 uL scFv supernatant, added to U87MG cells, detected with anti-human IgG 488; control GFP AAV supernatant

Sequence of UniProt Q7Z5A7 (Q7Z5A7 44-132): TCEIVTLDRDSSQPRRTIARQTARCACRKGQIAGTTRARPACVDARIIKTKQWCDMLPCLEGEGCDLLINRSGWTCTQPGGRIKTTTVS

Binder	reduction of the MFI of the binding of human FAM19A5-Fc to U87MG cells
anti-FAM19A5 ("1-65") scFv, secreted by cells transduced with scAAV9-CMV-1-65-ScFv (scFv, part only, C-terminal FLAG tag) scFv: ALTQPSSVSANPGETVKITCSGGGSSGYGYGWYQQKSPSSAPLTVIYWNDKRPSDIPSRFSGSKSGSTHTLTITGVQAEDEAVYFCGNDDYSSDSGYVGVFGAGTTLTVLSGGGGSSGGGGSAVTLDESGGGLQTPGGALSLVCKASGFTFSSYQMGWVRQAPGKGLEWVGVINKSGSDTSYGSAVKGRATISRDNGQSTVRLQLNNLRAEDTGTYFCAKGSASYITAATIDAWGHGTEVIVSS	19%
anti-FAM19A5 ("2-13") scFv, secreted by cells transduced with scAAV9-CMV-2-13-ScFv (scFv, part only, C-terminal FLAG tag) scFv: ALTQPSSVSANPGETVKITCSGGSYSYGWFQQKSPGSALVTVIYWDDERPSDIPSRFSGALSGSTNTLTITGVQADDEAVYFCGTEDISGTAGVFGAGTTLTVLSGGGGSSGGGGSAVTLDESGGGLQTPGGALSLVCKASGFTFSSHGMFWVRQTPGKGLEYVAEITNDGSGTNYGSAVKGRATISRDNGQSTVRLQLNNLRAEDTGTYFCARSTYECPGGFSCWGDTGQIDAWGHGTEVIVSS	68%
